Biological target: Flag-tagged PITX2 R115L (mouse)
Assay: co-IP; 293T cells co-transfected with PITX2-Flag (WT or R115L) and NRF2-HA or YAP1-HA; lysis in 50 mM Tris-HCl pH 7.5, 150 mM NaCl, 1% Nonidet P-40, 0.5% sodium deoxycholate; Flag immunoprecipitation at 4 °C overnight, six washes, blot with anti-HA; relative binding capacity = normalized IP-HA intensity / normalized IP-Flag intensity (ImageJ)

Molecule | reduction of relative binding capacity against WT PITX2 [%]
HA-tagged YAP1 (from UniProt P46938 1-488) (natural protein) | 89.1
HA-tagged NRF2 (natural protein) MMDLELPPPGLQSQQDMDLIDILWRQDIDLGVSREVFDFSQRQKDYELEKQKKLEKERQEQLQKEQEKAFFAQFQLDEETGEFLPIQPAQHIQTDTSGSASYSQVAHIPKQDALYFEDCMQLLAETFPFVDDHESLALDIPSHAESSVFTAPHQAQSLNSSLEAAMTDLSSIEQDMEQVWQELFSIPELQCLNTENKQLADTTAVPSPEATLTEMDSNYHFYSSISSLEKEVGNCGPHFLHGFEDSFSSILSTDDASQLTSLDSNPTLNTDFGDEFYSAFIAEPSDGGSMPSSAAISQSLSELLDGTIEGCDLSLCKAFNPKHAEGTMEFNDSDSGISLNTSPSRASPEHSVESSIYGDPPPGFSDSEMEELDSAPGSVKQNGPKAQPAHSPGDTVQPLSPAQGHSAPMRESQCENTTKKEVPVSPGHQKAPFTKDKHSSRLEAHLTRDELRAKALHIPFPVEKIINLPVDDFNEMMSKEQFNEAQLALIRDIRRRGKNKVAAQNCRKRKLENIVELEQDLGHLKDEREKLLREKGENDRNLHLLKRRLSTLYLEVFSMLRDEDGKPYSPSEYSLQQTRDGNVFLVPKSKKPDTKKN | 53.8

— PMC8556256
